Reference: US20230272073A1

Biological target: IGHV3-21/IGLV3-21^G110 BCR on murine TKO cells (human) (UniProt P01871)
Assay: flow cytometry dot plot, cell mix B (1:1 IGHV3-21/IGLV3-21^G110 BCR TKO cells and BCR-negative TKO cells), 5 µg/ml mAb01-01-APC and 2 µg/ml anti-human IgM-PE

Chain of IGHV3-21/IGLV3-21^G110 BCR on murine TKO cells (human) (P01871 other isoform, or with tags, fused parts or gaps, chain 1 of 2): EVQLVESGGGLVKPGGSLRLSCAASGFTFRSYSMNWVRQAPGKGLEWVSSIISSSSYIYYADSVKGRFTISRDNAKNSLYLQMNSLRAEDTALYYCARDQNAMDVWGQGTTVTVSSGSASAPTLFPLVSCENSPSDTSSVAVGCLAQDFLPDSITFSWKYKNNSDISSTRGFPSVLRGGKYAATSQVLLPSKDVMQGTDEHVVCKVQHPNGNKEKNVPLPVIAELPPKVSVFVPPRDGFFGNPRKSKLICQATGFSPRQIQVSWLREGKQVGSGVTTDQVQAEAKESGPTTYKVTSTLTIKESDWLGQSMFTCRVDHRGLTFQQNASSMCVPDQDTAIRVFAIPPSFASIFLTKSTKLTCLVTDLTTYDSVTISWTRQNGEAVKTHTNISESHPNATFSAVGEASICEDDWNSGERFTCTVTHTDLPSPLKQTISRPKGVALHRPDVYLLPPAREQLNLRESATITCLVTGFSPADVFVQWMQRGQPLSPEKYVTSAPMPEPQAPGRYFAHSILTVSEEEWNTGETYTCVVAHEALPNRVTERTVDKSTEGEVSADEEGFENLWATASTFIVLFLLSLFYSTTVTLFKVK
Chain of IGHV3-21/IGLV3-21^G110 BCR on murine TKO cells (human) (light, as listed by the source, chain 2 of 2): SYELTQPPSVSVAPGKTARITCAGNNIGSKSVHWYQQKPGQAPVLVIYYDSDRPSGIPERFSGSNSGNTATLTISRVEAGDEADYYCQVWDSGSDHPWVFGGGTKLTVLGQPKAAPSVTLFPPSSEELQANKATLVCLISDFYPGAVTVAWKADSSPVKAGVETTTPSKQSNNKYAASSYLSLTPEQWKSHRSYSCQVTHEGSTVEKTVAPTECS

share of gated cells (P1) in quadrant Q1 (anti-IgM-PE positive, mAb01-01-APC negative): 42.2% | share of gated cells (P1) in quadrant Q2 (anti-IgM-PE positive, mAb01-01-APC positive): 1.11%
B1: mAb01-01 (antibody, mouse IgG1, kappa, V domains shown)
VH: QVQLQQSGPGLVQPSQSLSITCTVSGFSLTSYGIHWVRQSPGKGLEWLGVIWRGGGTDSNAAFMSRLSITKDNSKSQVFFKMNSLQADDTAIYYCARSRYDEEESMNYWGQGTSVTVSS
VL: QIVLTQSPASLSASVGETVTITCRASGNIHSYLAWYQQKQGKSPQLLVYNAKTLADGVPSRFSGSGSGTQYSLKINSLQPEDFGSYYCQHFWNTPPTFGAGTKLELKR
